For series [1], the target named is T1, CkTbS (Camellia sinensis, UniProt A0A6C0WX00, T241I).
T1 construct: gene TBS; full-length, recombinant from E. coli BL21(DE3); N-terminal His6-SUMO tag cleaved with ULP1
The series is described as follows: in vitro methylation assay, HPLC. As to conditions: SAM as methyl donor. Type of series: biochemical.

The target in series [2] is T2, CkTbS (Camellia sinensis, UniProt A0A6C0WX00, S270C).
T2 construct: gene TBS; full-length, recombinant from E. coli BL21(DE3); N-terminal His6-SUMO tag cleaved with ULP1
T2 sequence (A0A6C0WX00 whole entry S270C): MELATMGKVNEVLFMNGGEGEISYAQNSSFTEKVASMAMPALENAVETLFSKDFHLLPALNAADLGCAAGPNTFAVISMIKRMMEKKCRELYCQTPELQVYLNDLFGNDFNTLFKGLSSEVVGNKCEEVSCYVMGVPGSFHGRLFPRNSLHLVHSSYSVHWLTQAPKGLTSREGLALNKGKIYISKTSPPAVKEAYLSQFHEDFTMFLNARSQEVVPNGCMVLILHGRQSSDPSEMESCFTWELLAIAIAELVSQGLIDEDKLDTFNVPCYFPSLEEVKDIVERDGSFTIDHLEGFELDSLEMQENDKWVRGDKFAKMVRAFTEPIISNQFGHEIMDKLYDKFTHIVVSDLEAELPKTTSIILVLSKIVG
The series is described as follows: in vitro methylation assay, HPLC. The format is biochemical. The conditions noted are these: SAM as methyl donor; printed as C270S, but CkTbS residue 270 is Ser.

The target of series [3] is T3, CkTbS (Camellia sinensis, UniProt A0A6C0WX00, H226R/T241I/S270C).
T3 construct: gene TBS; full-length, recombinant from E. coli BL21(DE3); N-terminal His6-SUMO tag cleaved with ULP1
T3 sequence (A0A6C0WX00 whole entry H226R/T241I/S270C): as the sequence (A0A6C0WX00 whole entry S270C) above, with H226R, T241I counted along it
The series is described as follows: in vitro methylation assay, HPLC. Type of series: biochemical. The conditions noted are these: SAM as methyl donor; triple mutant, composition from the three variable residues.

Substrate in series [4]: C[S+](CC[C@H](N)C(=O)O)C[C@H]1O[C@@H](n2cnc3c(N)ncnc32)[C@H](O)[C@@H]1O
The series is described as follows: purified protein. The conditions noted are these: 50 μM 1,3,7-trimethyluric acid, 200 μM MgCl2, 100 mM Tris-HCl pH 7.0, 27 °C.

Substrate in series [5]: Cn1c(=O)c2c([nH]c(=O)n2C)n(C)c1=O
Put plainly: theacrine formation by HPLC-MS. The format is biochemical, Camellia sinensis. The conditions noted are these: 1.5 mM SAM, 200 μM MgCl2, 100 mM Tris-HCl pH 7.0, 27 °C.

Substrate in series [6]: Cn1cnc2[nH]c(=O)[nH]c(=O)c21
The series is described as follows: theobromine formation by HPLC-MS. Type of series: biochemical, Camellia sinensis. The conditions noted are these: 1.5 mM SAM, 200 μM MgCl2, 100 mM Tris-HCl pH 7.0, 27 °C.

Series [7] concerns the molecule itself. Put plainly: crystal structure; CkTcS (eight N-terminal residues truncated) mixed with 2 mM SAH and 5 mM 1,3,7-trimethyluric acid; hanging drop, 4 °C, 0.1 M HEPES (pH 7.5), 1 M sodium citrate; 3.14 Å; homodimer in the crystal lattice.

From publication PMC7081346, “Identification and characterization of N9-methyltransferase involved in converting caffeine into non-stimulatory theacrine in tea” (Nature Communications, 2020) come the findings set out here.

T1 sequence (A0A6C0WX00 whole entry T241I): as the sequence (A0A6C0WX00 whole entry S270C) above, with T241I, C270S counted along it

As to `Cn1c(=O)c2c([nH]c(=O)n2C)n(C)c1=O` [compound 5, 1,3,7-trimethyluric acid], the “in vitro methylation assay, HPLC” value in series [1] is “Single mutation of T241I or C270S on CkTbS led to a moderate increase”; in series [2], “Single mutation of T241I or C270S on CkTbS led to a moderate increase”; in series [3], “the double and triple mutations further increased the N-methyltransferase activity”.

B1: CkTcS (Camellia sinensis var. assamica) (protein)
chain: MELATRGKVKEVLFMNTGEGESSYVQNSSFTEKVASMAMPALENAVETLFSKDFHLFQAINAADLGCATGPNTFAVISTIKRMMEKKCRELNCQTLELQVYMNDLFGNDFNTLFKGLSSKVIGNKCEEVSCYVMGVPGSFHGRLFPRNSLHLVHSSYSVHWLTQAPKGLTSREGLALNKGRIYISKTSPPVVREAYLSQFHEDFTMFLNARSQEVVPNGCMVLILRGRQSSDPSDMQSCFIWELLAIAIAELVSQGLIDEDKLDTFNIPCYFPSLEEVKDIVERDGSFTIDHMEGFELDSLQMQENDKWVRGEKFAKIVRAFTEPIISNQFGHEIMDKLYDKFTHIVVSDLEAKLPKTTSIILVLSKIVG
notes: full-length, recombinant from E. coli BL21(DE3); N-terminal His6-SUMO tag cleaved with ULP1; homodimer
Consider B1, for which the values for the Km in series [4], in series [5] and in series [6] were 109.50 µM, 4.68 ± 0.72 µM and 226.20 ± 33.95 µM, respectively. The kcat is given as 11.42 ± 0.37 ×10^-3 s^-1 in series [5] and 6.07 ± 0.21 ×10^-3 s^-1 in series [6].

B2: CkTbS (Camellia sinensis var. assamica) (protein)
chain: MELATMGKVNEVLFMNGGEGEISYAQNSSFTEKVASMAMPALENAVETLFSKDFHLLPALNAADLGCAAGPNTFAVISMIKRMMEKKCRELYCQTPELQVYLNDLFGNDFNTLFKGLSSEVVGNKCEEVSCYVMGVPGSFHGRLFPRNSLHLVHSSYSVHWLTQAPKGLTSREGLALNKGKIYISKTSPPAVKEAYLSQFHEDFTMFLNARSQEVVPNGCMVLILHGRQSSDPSEMESCFTWELLAIAIAELVSQGLIDEDKLDTFNVPSYFPSLEEVKDIVERDGSFTIDHLEGFELDSLEMQENDKWVRGDKFAKMVRAFTEPIISNQFGHEIMDKLYDKFTHIVVSDLEAELPKTTSIILVLSKIVG
notes: full-length, recombinant from E. coli BL21(DE3); N-terminal His6-SUMO tag cleaved with ULP1
In the case of B2, in series [5], the Michaelis-Menten constant (Km) came out at 162.20 ± 27.80 µM and the kcat was 0.18 ± 0.01 ×10^-3 s^-1.

B3: CkCS (Camellia sinensis var. assamica) (protein)
chain: MELATREKVNEVLFMNRGEGESSYAQNSSFTQQVASMAQPALENAVETLFSKDFHLQALNAADLGCAAGPNTFAVISTIKRMMEKKCRELNCQTLELQVYLNDLFGNDFNTLFKGLSSEVIGNKCEEVPCYVMGVPGSFHGRLFPRNSLHLVYSSYSVHWLTQAPKGLTSREGLALNKGKIYISKTSPPVVREAYLSQFHEDFTMFLNYRSQEMVPNGCMVLILRGRQCFDPSDMQSCFTWELLALAIAELVSQGLIDEDKLDTFNIPSYFASLEEVKDIVERDGSFTIDHIEGFDLDSVEMQENDKWVRGEKFTKVVRAFSEPIISSQFGHEIMDKLYDKFTHIVVSDLEAKLPKTTSIILVLSKIVG
notes: as for B2
Turning to B3, in series [5], the Michaelis constant (Km) came out at 71.49 ± 15.60 µM and the kcat is listed as 0.12 ± 0.01 ×10^-3 s^-1.

B4: theacrine synthase CkTcS (N9-methyltransferase), N-terminal eight residues truncated (enzyme, Camellia assamica var. kucha (Kucha), UniProt A0A6C0WW36 9-370, looked up)
chain: VKEVLFMNTGEGESSYVQNSSFTEKVASMAMPALENAVETLFSKDFHLFQAINAADLGCATGPNTFAVISTIKRMMEKKCRELNCQTLELQVYMNDLFGNDFNTLFKGLSSKVIGNKCEEVSCYVMGVPGSFHGRLFPRNSLHLVHSSYSVHWLTQAPKGLTSREGLALNKGRIYISKTSPPVVREAYLSQFHEDFTMFLNARSQEVVPNGCMVLILRGRQSSDPSDMQSCFIWELLAIAIAELVSQGLIDEDKLDTFNIPCYFPSLEEVKDIVERDGSFTIDHMEGFELDSLQMQENDKWVRGEKFAKIVRAFTEPIISNQFGHEIMDKLYDKFTHIVVSDLEAKLPKTTSIILVLSKIVG
notes: CkTcS, theacrine synthase (N9-methyltransferase) of Camellia assamica var. kucha (Kucha); for crystallization eight residues on the N-terminal were truncated; source: E. coli BL21(DE3), purified (Nickel column, ion-exchange, size-exclusion); not shown: His6, N-terminal, cleaved; SUMO, N-terminal, cleaved
On to B4, for which, in series [7], the “stoichiometry N” value amounted to 2.
